This passage reports EC50 of hFSH-stimulated cAMP response (HTRF cAMP assay), CHO-K1 cells expressing the receptor, 30 min results from PMC11940890.

Among the targets are eFSHR-N191Q (equine) (UniProt P47799); eFSHR-N199Q (equine) (UniProt P47799); eFSHR-N268Q (equine) (UniProt P47799); eFSHR-N293Q (equine) (UniProt P47799).
Test [1] has as its target equine follicle-stimulating hormone receptor wild type (eFSHR-wt) (equine) (UniProt P47799).

Human FSH (hFSH), sequence (P01215 25-116): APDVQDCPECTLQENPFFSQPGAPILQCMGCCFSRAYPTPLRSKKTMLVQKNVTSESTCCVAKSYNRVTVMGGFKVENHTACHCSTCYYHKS
Human FSH (hFSH), sequence (P01225 19-129): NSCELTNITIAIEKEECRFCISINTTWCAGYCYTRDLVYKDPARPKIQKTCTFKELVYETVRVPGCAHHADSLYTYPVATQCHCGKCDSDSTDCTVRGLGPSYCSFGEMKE
eFSHR-N293Q (equine), sequence (P47799 18-694 N293Q): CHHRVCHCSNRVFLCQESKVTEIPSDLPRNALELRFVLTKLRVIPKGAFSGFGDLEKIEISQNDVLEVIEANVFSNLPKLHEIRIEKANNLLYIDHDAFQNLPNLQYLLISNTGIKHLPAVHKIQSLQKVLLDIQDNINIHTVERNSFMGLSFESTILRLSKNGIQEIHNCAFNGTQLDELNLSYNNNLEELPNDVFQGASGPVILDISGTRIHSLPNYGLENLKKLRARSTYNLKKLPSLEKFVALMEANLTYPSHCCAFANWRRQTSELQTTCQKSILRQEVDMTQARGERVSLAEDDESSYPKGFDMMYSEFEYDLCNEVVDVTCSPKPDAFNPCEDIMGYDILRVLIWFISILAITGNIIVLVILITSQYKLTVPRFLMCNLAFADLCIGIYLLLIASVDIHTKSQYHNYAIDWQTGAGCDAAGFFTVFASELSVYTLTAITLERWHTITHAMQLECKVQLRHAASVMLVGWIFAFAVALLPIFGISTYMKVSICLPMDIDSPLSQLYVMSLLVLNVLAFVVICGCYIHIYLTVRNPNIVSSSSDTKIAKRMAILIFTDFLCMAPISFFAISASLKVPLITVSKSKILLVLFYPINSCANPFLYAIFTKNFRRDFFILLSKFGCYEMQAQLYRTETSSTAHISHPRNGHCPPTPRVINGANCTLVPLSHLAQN
eFSHR-N191Q (equine), sequence (P47799 18-694 N191Q): as the sequence (P47799 18-694 N293Q) above, with N174Q, Q276N counted along it
equine follicle-stimulating hormone receptor wild type (eFSHR-wt) (equine), sequence (P47799 18-694): as the sequence (P47799 18-694 N293Q) above, with Q276N counted along it
eFSHR-N199Q (equine), sequence (P47799 18-694 N199Q): as the sequence (P47799 18-694 N293Q) above, with N182Q, Q276N counted along it
eFSHR-N268Q (equine), sequence (P47799 18-694 N268Q): as the sequence (P47799 18-694 N293Q) above, with N251Q, Q276N counted along it

In the case of “Human FSH (hFSH) (from UniProt P01215 25-116; P01225 19-129) (ligand)”, the EC50 of hFSH-stimulated cAMP response (HTRF cAMP assay), CHO-K1 cells expressing the receptor, 30 min at room temperature with eFSHR-N191Q (equine) was 2.11 µg/mL; with eFSHR-N199Q (equine) it was 2.21 µg/mL; in the test with eFSHR-N268Q (equine) it was 0.806 µg/mL; with eFSHR-N293Q (equine) it was 1.24 µg/mL; in test [1], 0.99 µg/mL.
